The labels stand for the following.
B1: human CEACAM1 IgV domain, wildtype [human] / itself (parent)
chain: AQLTTESMPFNVAEGKEVLLLVHNLPQQLFGYSWYKGERVDGNRQIVGYAIGTQQATPGPANSGRETIYPNASLLIQNVTQNDTGFYTLQVIKSDLVNEEATGQFHVY

The variants in this experiment derive from B1. The experiment is described as follows: SEC-MALS. The conditions noted are these: with itself; 100 μM protein; read off a plot.
As to chain 1 E100A, the screen value was 15000 Daltons.
With chain 1 I92A the figure was 15000 Daltons.
For chain 1 V40A, the screen value was found to be 19000 Daltons.
